Results as given in patent publication US6960343B2, “Toll/interleukin-1 receptor adapter protein (TIRAP)” (Yale University School of Medicine, priority 2001, dated 2005).

Columns and labels:
IL-1R = biological target: T1, IL-1R (Homo sapiens, UniProt P14778); assay: IL-1R-induced NF-κB activity, luciferase reporter, 293T cells; assay type: cell-based
T1 construct: expressed in transfected cells; host or cells: 293T cells
T1 sequence (P14778 18-569): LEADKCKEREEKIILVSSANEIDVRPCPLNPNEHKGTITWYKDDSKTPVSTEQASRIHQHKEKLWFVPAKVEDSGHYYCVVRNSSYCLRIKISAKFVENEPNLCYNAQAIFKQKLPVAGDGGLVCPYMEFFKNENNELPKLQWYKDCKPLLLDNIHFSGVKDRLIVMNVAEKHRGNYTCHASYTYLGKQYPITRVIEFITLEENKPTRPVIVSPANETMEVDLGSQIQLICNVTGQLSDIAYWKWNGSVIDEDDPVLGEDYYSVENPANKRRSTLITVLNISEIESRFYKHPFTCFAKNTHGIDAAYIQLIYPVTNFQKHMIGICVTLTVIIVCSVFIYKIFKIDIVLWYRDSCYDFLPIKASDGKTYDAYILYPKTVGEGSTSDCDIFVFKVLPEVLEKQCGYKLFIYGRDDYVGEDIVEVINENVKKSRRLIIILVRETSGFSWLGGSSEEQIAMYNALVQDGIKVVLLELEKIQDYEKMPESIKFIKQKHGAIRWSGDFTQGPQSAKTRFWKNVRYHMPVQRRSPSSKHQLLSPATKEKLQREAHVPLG
T1 sequence (Q9NPH3 21-570 partner): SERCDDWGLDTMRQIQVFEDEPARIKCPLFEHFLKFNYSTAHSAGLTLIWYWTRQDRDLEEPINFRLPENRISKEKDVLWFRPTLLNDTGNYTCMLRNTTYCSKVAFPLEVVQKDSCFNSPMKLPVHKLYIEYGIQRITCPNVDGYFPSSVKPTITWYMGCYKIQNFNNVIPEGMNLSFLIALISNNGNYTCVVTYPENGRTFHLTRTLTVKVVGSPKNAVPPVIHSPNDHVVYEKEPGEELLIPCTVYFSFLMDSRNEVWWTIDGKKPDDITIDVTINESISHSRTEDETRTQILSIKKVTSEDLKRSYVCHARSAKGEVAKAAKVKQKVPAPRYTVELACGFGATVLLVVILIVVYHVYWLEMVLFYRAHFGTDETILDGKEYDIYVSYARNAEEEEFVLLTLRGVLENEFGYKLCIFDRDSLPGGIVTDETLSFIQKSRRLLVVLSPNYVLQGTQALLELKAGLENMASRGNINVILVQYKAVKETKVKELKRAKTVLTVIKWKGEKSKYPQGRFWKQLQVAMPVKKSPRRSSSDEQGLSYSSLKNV
Description: Unlike TLR4, neither IL-1R nor TLR9 can induce NF-κB in the absence of MyD88 (Kawai 1999; Schnare 2000; Adache 1998). To assess the possibility that TIRAP is the putative adapter in the MyD88-independent signaling pathway, we tested TIRAP P125H for its ability to inhibit NF-κB activity induced y IL-1R and TLR9. 293T cells were co-transfected with either vector alone (pcDNA3), IL-1R (0.1 μg), and IL-1R AcP (0.1 μg) [Dr. Medzhitov: Please indicate what the IL-1R AcP construct encodes] plasmid cDNAs, with or without increasing concentrations (10 ng, 50 ng, 200 ng) of TIRAP P125H plasmid and the NF-κB-dependent luciferase reporter gene.

TLR9 = biological target: T2, TLR9 (Homo sapiens, UniProt Q9NR96); assay: NF-κB activation by CpG stimulation of TLR9-transfected 293T cells; assay type: cell-based; conditions: 100 ng, 250 ng construct, CpG 3 μM
T2 construct: TLR9 (encodes full length TLR9); expressed in transfected cells; host or cells: 293T cells
T2 sequence (Q9NR96 26-1032): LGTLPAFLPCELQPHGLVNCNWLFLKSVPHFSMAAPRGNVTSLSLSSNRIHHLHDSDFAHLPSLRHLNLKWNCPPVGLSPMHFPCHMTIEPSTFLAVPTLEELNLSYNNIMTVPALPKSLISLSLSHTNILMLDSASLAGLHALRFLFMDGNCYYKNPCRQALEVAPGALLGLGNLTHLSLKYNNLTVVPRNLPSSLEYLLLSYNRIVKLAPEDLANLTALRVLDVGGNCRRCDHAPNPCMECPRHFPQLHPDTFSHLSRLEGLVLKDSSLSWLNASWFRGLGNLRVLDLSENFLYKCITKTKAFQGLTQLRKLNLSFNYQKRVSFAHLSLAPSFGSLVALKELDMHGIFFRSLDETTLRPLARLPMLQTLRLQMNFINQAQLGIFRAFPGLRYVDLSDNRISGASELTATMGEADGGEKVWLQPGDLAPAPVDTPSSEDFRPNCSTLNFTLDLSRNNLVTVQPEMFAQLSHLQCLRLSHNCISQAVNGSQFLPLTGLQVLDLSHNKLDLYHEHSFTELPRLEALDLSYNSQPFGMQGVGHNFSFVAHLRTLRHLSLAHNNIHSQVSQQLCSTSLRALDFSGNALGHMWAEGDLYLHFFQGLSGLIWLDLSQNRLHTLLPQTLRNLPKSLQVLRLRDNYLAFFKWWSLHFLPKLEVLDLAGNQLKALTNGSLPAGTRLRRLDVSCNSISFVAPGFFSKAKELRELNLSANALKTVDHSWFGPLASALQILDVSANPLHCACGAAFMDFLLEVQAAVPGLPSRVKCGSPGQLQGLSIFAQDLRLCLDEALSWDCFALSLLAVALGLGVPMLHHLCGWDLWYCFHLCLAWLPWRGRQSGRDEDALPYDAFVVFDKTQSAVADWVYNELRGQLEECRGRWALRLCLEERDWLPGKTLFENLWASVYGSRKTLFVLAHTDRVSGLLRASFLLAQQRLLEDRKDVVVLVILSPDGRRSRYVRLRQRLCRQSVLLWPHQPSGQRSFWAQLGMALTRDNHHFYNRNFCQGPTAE
Description: To determine whether TIRAP inhibits NF-κB activation induced by CpG-stimulation of TLR9-transfected cells, 293T cells were transfected with vector alone (pcDNA3), TLR9 (50 ng), with or without increasing concentrations (100 ng, 250 ng) of either TIRAP P125H or MyD88 DN. At twenty-four h post transfection, CpG oligonucleotides were added at 3 μM final concentration to TLR9-transfected samples and incubated for 14 more hours before harvesting. […] Thus, TIRAP appears to function downstream of TLR4 but not IL-1R or TLR9, and is likely to be the adapter in the MyD88-independent pathway downstream of TLR4.

TIRAP P125H: vector encoding a mutant form of TIRAP containing a proline to histidine mutation at amino acid position 125
did not inhibit: inhibition of NF-κB activity induced by IL-1B cytokine (IL-1R) | inhibition of NF-κB activity induced by co-transfected IL-1R and IL-1R AcP (IL-1R; 293T cells, 10 ng, 50 ng, 200 ng plasmid) | inhibition of NF-κB activation induced by CpG-stimulation of TLR9-transfected cells (TLR9)
